This is an account of results in publication PMC8219104 (2021).

The labels stand for the following.
B1: Sybody Sb15 (VHH)
VHH: QVQLVESGGGLVQAGGSLRLSCAASGFPVKNFEMEWYRKAPGKEREWVAAIQSGGVETYYADSVKGRFTISRDNAKNTVYLQMNSLKPEDTAVYYCFVYVGRSYIGQGTQVTVS
B2: Sybody Sb14 (VHH)
VHH: QVQLVESGGGLVQAGGSLRLSCAASGFPVQAREMEWYRQAPGKEREWVAAIKSTGTYTAYAYSVKGRFTISRDNAKNTVYLQMNSLKPEDTAVYYCYVYVGSSYIGQGTQVTVSA
B3: Sybody Sb16 (VHH)
VHH: QVQLVESGGGLVQAGGSLRLSCAASGFPVAYKTMWWYRQAPGKEREWVAAIESYGIKWTRYADSVKGRFTISRDNAKNTVYLQMNSLKPEDTAVYYCIVWVGAQYHGQGTQVTVSA
B4: Sybody Sb68 (VHH)
VHH: QVQLVESGGGSVQAGGSLRLSCAASGSISSITYLGWFRQAPGKEREGVAALITVNGHTYYADSVKGRFTVSLDNAKNTVYLQMNSLKPEDTALYYCAAAAWGYAWPLHQDDYWYWGQGTQVTVSA

One assay addresses T1, SARS-CoV-2 spike receptor-binding domain (RBD), amino acids 333 to 529, bacteria-expressed and refolded (SARS-CoV-2, UniProt P0DTC2 333-529). As to the kind of experiment: SPR. A general note: SPR reads the build-up and loss of mass on a sensor chip optically.
Molecule B1 came in with a koff of 0.011 s⁻¹.
As for B2, the koff worked out at 0.007 s⁻¹.
Same read-out and setting: to B3 belongs 0.02 s⁻¹; to B4, 0.023 s⁻¹.

For a further assay, the target named is T1, SARS-CoV-2 spike receptor-binding …. The experiment in a line: SPR. The source holds these as a separate data set.
B2 registered a dissociation constant (Kd) of 13.8 nM.
The molecule B3 gave a Kd of 40.6 nM. This Kd lies about 2.9-fold higher than the previous one.

In general, koff refers to the first-order rate constant of dissociation. Usually Kd stands for the free concentration of one partner at which half of the binding sites on the other are occupied at equilibrium, for simple one-to-one binding. Low readings indicate higher affinity, high ones lower affinity.
